Results taken from paper PMC9557730.

B1: N-terminal 3×-FLAG-tagged p52 (WT) [human] / p44 [human (endogenous in HEK293T)] (parent)
chain 1: MESTPSRGLNRVHLQCRNLQEFLGGLSPGVLDRLYGHPATCLAVFRELPSLAKNWVMRMLFLEQPLPQAAVALWVKKEFSKAQEESTGLLSGLRIWHTQLLPGGLQGLILNPIFRQNLRIALLGGGKAWSDDTSQLGPDKHARDVPSLDKYAEERWEVVLHFMVGSPSAAVSQDLAQLLSQAGLMKSTEPGEPPCITSAGFQFLLLDTPAQLWYFMLQYLQTAQSRGMDLVEILSFLFQLSFSTLGKDYSVEGMSDSLLNFLQHLREFGLVFQRKRKSRRYYPTRLAINLSSGVSGAGGTVHQPGFIVVETNYRLYAYTESELQIALIALFSEMLYRFPNMVVAQVTRESVQQAIASGITAQQIIHFLRTRAHPVMLKQTPVLPPTITDQIRLWELERDRLRFTEGVLYNQFLSQVDFELLLAHARELGVLVFENSAKRLMVVTPAGHSDVKRFWKRQKHSS
chain 2: MDEEPERTKRWEGGYERTWEILKEDESGSLKATIEDILFKAKRKRVFEHHGQVRLGMMRHLYVVVDGSRTMEDQDLKPNRLTCTLKLLEYFVEEYFDQNPISQIGIIVTKSKRAEKLTELSGNPRKHITSLKKAVDMTCHGEPSLYNSLSIAMQTLKHMPGHTSREVLIIFSSLTTCDPSNIYDLIKTLKAAKIRVSVIGLSAEVRVCTVLARETGGTYHVILDESHYKELLTHHVSPPPASSSSECSLIRMGFPQHTIASLSDQDAKPSFSMAHLDGNTEPGLTLGGYFCPQCRAKYCELPVECKICGLTLVSAPHLARSYHHLFPLDAFQEIPLEEYNGERFCYGCQGELKDQHVYVCAVCQNVFCVDCDVFVHDSLHCCPGCIHKIPAPSGV

Variants of: B1
Assay: FLAG-IP LC–MS (iBAQ)
Conditions: with p44 [human (endogenous in HEK293T)]; HEK293T nuclear extracts; n = 3, biological replicates; read off a plot

response (Normalized Log2 iBAQ)	Variant
0.71	chain 1 MESTPSRGLNRVHLQCRNLQEFLGGLSPGVLDRLYGHPATCLAVFRELPSLAKNWVMRMLFLEQPLPQAAVALWVKKEFSKAQEESTGLLSGLRIWHTQLLPGGLQGLILNPIFRQNLRIALLGGGKAWSDDTSQLGPDKHARDVPSLDKYAEERWEVVLHFMVGSPSAAVSQDLAQLLSQAGLMKSTEPGEPPCITSAGFQFLLLDTPAQLWYFMLQYLQTAQSRGMDLVEILSFLFQLSFSTLGKDYSVEGMSDSLLNFLQHLREFGLVFQRKRKSRRYYPTRLAINLSSGVSGAGGTVHQPGFIVVETNYRLYAYTESELQIALIALFSEMLYAAPNMVVAQVTRESVQQAIASGITAQQIIHFLRTRAHPVMLKQTPVLPPTITDQIRLWELERDRLRFTEGVLYNQFLSQVDFELLLAHARELGVLVFENSAKRLMVVTPAGHSDVKRFWKRQKHSS [chain 1 R337A F338A]
0.64	chain 1 MESTPSRGLNRVHLQCRNLQEFLGGLSPGVLDRLYGHPATCLAVFRELPSLAKNWVMRMLFLEQPLPQAAVALWVKKEFSKAQEESTGLLSGLRIWHTQLLPGGLQGLILNPIFRQNLRIALLGGGKAWSDDTSQLGPDKHARDVPSLDKYAEERWEVVLHFMVGSPSAAVSQDLAQLLSQAGLMKSTEPGEPPCITSAGFQFLLLDTPAQLWYFMLQYLQTAQSRGMDLVEILSFLFQLSFSTLGKDYSVEGMSDSLLNFLQHLREFGLVFQRKRKSRRYYPTRLAINLSSGVSGAGGTVHQPGFIVVFTNYRLYAYTESELQIALIALFSEMLYRFPNMVVAQVTRESVQQAIASGITAQQIIHFLRTRAHPVMLKQTPVLPPTITDQIRLWELERDRLRFTEGVLYNQFLSQVDFELLLAHARELGVLVFENSAKRLMVVTPAGHSDVKRFWKRQKHSS [chain 1 E310F]
0.66	chain 1 MESTPSRGLNRVHLQCRNLQEFLGGLSPGVLDRLYGHPATCLAVFRELPSLAKNWVMRMLFLEQPLPQAAVALWVKKEFSKAQEESTGLLSGLRIWHTQLLPGGLQGLILNPIFRQNLRIALLGGGKAWSDDTSQLGPDKHARDVPSLDKYAEERWEVVLHFMVGSPSAAVSQDLAQLLSQAGLMKSTEPGEPPCITSAGFQFLLLDTPAQLWYFMLQYLQTAQSRGMDLVEILSFLFQLSFSTLGKDYSVEGMSDSLLNFLQHLREFGLVFQRKRKSRRYYPTRLAINLSSGVSGAGGTVHQPGFIVVATNYALYAYTESELQIALIALFSEMLYRFPNMVVAQVTRESVQQAIASGITAQQIIHFLRTRAHPVMLKQTPVLPPTITDQIRLWELERDRLRFTEGVLYNQFLSQVDFELLLAHARELGVLVFENSAKRLMVVTPAGHSDVKRFWKRQKHSS [chain 1 E310A R314A]
0.66	chain 1 MESTPSRGLNRVHLQCRNLQEFLGGLSPGVLDRLYGHPATCLAVFRELPSLAKNWVMRMLFLEQPLPQAAVALWVKKEFSKAQEESTGLLSGLRIWHTQLLPGGLQGLILNPIFRQNLRIALLGGGKAWSDDTSQLGPDKHARDVPSLDKYAEERWEVVLHFMVGSPSAAVSQDLAQLLSQAGLMKSTEPGEPPCITSAGFQFLLLDTPAQLWYFMLQYLQTAQSRGMDLVEILSFLFQLSFSTLGKDYSVEGMSDSLLNFLQHLREFGLVFQRKRKSRRYYPTRLAINLSSGVSGAGGTVHQPGFIVVETNYRLAAATESELQIALIALFSEMLYRFPNMVVAQVTRESVQQAIASGITAQQIIHFLRTRAHPVMLKQTPVLPPTITDQIRLWELERDRLRFTEGVLYNQFLSQVDFELLLAHARELGVLVFENSAKRLMVVTPAGHSDVKRFWKRQKHSS [chain 1 Y316A Y318A]
